Source: doi:10.1101/2024.07.16.603692
pKd: −log10 of the molar value.

Molecular target: CBP-UPF1-CH-HD (aa 115-914) (human) (UniProt Q92900)
Assay: MST

UPF2(770-1204) (from UniProt Q9HAU5 770-1204) (domain or fragment)
pKd: 8.00
